Assay results: patent publication US20080166375A1

Target: urokinase-type plasminogen activator receptor (human) (UniProt Q03405)
Experiment: cell-based or functional assay

Chain of urokinase-type plasminogen activator receptor (human) (Q03405 23-305): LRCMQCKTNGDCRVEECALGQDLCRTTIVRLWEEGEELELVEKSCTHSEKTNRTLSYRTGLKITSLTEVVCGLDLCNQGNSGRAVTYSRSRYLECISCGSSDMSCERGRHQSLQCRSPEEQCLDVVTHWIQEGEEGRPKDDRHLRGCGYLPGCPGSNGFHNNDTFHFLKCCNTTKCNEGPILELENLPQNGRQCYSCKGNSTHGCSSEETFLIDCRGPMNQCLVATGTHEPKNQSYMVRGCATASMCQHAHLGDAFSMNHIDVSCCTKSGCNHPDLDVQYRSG

For “DTAT (from UniProt P00588 33-422; P00749 21-155)”, the IC50, 3H-thymidine incorporation inhibition, HUV-EC, DTAT was 0.0268 nM.
